Data on 5 molecules can be found in US20250361312A1 (INVOX PHARMA, published 2025).

The target in test [1] is T1, mouse OX40 receptor, cell-expressed (DO11.10-mOX40) (mouse, UniProt P47741 20-272).
T1 sequence: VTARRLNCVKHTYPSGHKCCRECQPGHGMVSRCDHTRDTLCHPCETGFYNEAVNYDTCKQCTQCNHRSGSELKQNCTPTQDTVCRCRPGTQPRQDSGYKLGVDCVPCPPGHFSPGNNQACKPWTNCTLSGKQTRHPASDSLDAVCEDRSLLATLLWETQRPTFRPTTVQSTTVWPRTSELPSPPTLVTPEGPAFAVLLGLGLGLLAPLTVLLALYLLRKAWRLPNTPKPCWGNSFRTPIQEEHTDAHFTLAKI
Briefly: cell-based or functional assay.

For test [2], the target named is T1, mouse OX40 receptor, cell-expressed …. Briefly: cell-based or functional assay. This is another data set of the same source.
Test [3] has the same target. The experiment in a line: flow cytometry on DO11.10-mOX40 cells. The method, then: Non-specific binding was also assessed by testing for binding to HEK cells not expressing OX40 by flow cytometry.
DO11.10 mOX40 or HEK cell suspensions were prepared in PBS+2% BSA (Sigma, A7906) and seeded at 4×10⁶ cell/ml with 50 μl/well in V-bottomed 96-well plates (Costar, 3897). […] The data was fit using log (agonist) vs response in GraphPad Prism Software.

The target is the same in test [4]. Briefly: flow cytometry, labelled antibody on DO11.10-mOX40 cells. Background: In flow cytometry, cells or beads pass a laser one at a time.
Test [5] has the same target. Briefly: cell-based or functional assay. The source holds these as a separate data set.
Test [6] has the same target. Briefly: cell-based or functional assay. This is another data set of the same source.
For test [7], the target named is T2, human OX40 receptor, cell-expressed (DO11.10-hOX40) (human, UniProt P43489 29-277).
T2 construct: also called CD134; TNFRSF4
T2 sequence: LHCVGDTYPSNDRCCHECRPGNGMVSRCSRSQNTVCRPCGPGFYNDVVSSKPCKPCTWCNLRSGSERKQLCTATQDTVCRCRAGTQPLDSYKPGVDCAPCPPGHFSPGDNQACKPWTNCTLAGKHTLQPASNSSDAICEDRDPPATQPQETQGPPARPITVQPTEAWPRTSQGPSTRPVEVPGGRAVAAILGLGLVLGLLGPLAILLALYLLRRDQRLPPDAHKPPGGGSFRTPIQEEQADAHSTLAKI
Briefly: cell binding, DO11.10-hOX40 cells, soluble Fcab.

Where two headings read alike, the source gives them in different places.

B1: G1AA/OX86 (antibody, human IgG1, kappa, L234A L235A, V domains shown)
VH: QVQLKESGPGLVQPSQTLSLTCTVSGFSLTGYNLHWVRQPPGKGLEWMGRMRYDGDTYYNSVLKSRLSISRDTSKNQVFLKMNSLQTDDTAIYYCTRDGRGDSFDYWGQGVMVTVSS
VL: DIVMTQGALPNPVPSGESASITCRSSQSLVYKDGQTYLNWFLQRPGQSPQLLTYWMSTRASGVSDRFSGSGSGTYFTLKISRVRAEDAGVYYCQQVREYPFTFGSGTKLEIKR
notes: also called anti-mouse OX40 mAb OX86 in a human IgG1 backbone with the LALA mutation
One may read the EC50 as the concentration needed to bring the measured effect to its halfway point. Low values mean greater potency, high ones weaker potency. Regarding B1, in test [1], the “EC50 of IL-2 release, crosslinked (anti-human CH2 mAb)” value was 1.75 nM. Moreover, the “EC50 of IL-2 release, Xlink (anti-hCH2)” value in test [2] is 0.463 nM. In test [3], the midpoint of the response, the EC50, lay at 3.1 nM.

B2: antibody OX86 (Biolegend cat no 119408) (antibody, V domains shown)
VH: QVQLKESGPGLVQPSQTLSLTCTVSGFSLTGYNLHWVRQPPGKGLEWMGRMRYDGDTYYNSVLKSRLSISRDTSKNQVFLKMNSLQTDDTAIYYCTRDGRGDSFDYWGQGVMVTVSS
VL: DIVMTQGALPNPVPSGESASITCRSSQSLVYKDGQTYLNWFLQRPGQSPQLLTYWMSTRASGVSDRFSGSGSGTYFTLKISRVRAEDAGVYYCQQVREYPFTFGSGTKLEIK
For B2, the “fluorescence over non-transduced cells” value in test [4] is not below 10 fold.

B3: FS20m-232-91AA/4420 (bispecific antibody, human IgG1, kappa, L234A L235A)
heavy: EVKLDETGGGLVQPGRPMKLSCVASGFTFSDYWMNWVRQSPEKGLEWVAQIRNKPYNYETYYSDSVKGRFTISRDDSKSSVYLQMNNLRVEDMGIYYCTGSYYGMDYWGQGTSVTVSSASTKGPSVFPLAPSSKSTSGGTAALGCLVKDYFPEPVTVSWNSGALTSGVHTFPAVLQSSGLYSLSSVVTVPSSSLGTQTYICNVNHKPSNTKVDKKVEPKSCDKTHTCPPCPAPEAAGGPSVFLFPPKPKDTLMISRTPEVTCVVVDVSHEDPEVKFNWYVDGVEVHNAKTKPREEQYNSTYRVVSVLTVLHQDWLNGKEYKCKVSNKALPAPIEKTISKAKGQPREPQVYTLPPSRDELFDPMYYYNQVSLTCLVKGFYPSDIAVEWESNGEPLWDYKTTPPVLDSDGSFFLYSKLTVWRDRWEDGNVFSCSVMHEALHNHYTQKSLSLSPG
light: DVVMTQTPLSLPVSLGDQASISCRSSQSLVHSNGNTYLRWYLQKPGQSPKVLIYKVSNRFSGVPDRFSGSGSGTDFTLKISRVEAEDLGVYFCSQSTHVPWTFGGGTKLEIKRTVAAPSVFIFPPSDEQLKSGTASVVCLLNNFYPREAKVQWKVDNALQSGNSQESVTEQDSKDSTYSLSSTLTLSKADYEKHKVYACEVTHQGLSSPVTKSFNRGEC
notes: Human IgG1 with anti-FITC 4420 Fab and LALA; The mouse OX40 site is in the CH3 domain; also called mFS20-232-91AA/4420; anti-mouse OX40 Fcab FS20m-232-91 in mock (4420 LALA) mAb^2 format
As for B3, the “EC50 of IL-2 release, crosslinked (FITC-dextran)” value in test [1] is 0.67 nM. Further, in test [2], the “EC50 of IL-2 release, Xlink (FITC-dextran)” value is 0.158 nM and the “EC50 of IL-2 release, no crosslinker” value worked out at 76.4 nM. For the same molecule, the “EC50 of IL-2 release, Xlink (FITC-dextran)” value in test [5] amounted to 0.629 nM. In test [3], this molecule showed an EC50 of 1.01 nM. Further, in test [6], the “EC50 of IL-2 release, HPAC cells present, + FITCdex” value came out at 0.548 nM and the “EC50 of IL-2 release, HPAC cells present, + G1/E2A + a-hFc + FITCdex” value was found to be 2.09 nM.

B4: Fcab FS20-22 (designed binder)
chain: TCPPCPAPELLGGPSVFLFPPKPKDTLMISRTPEVTCVVVDVSHEDPEVKFNWYVDGVEVHNAKTKPREEQYNSTYRVVSVLTVLHQDWLNGKEYKCKVSNKALPAPIEKTISKAKGQPREPQVYTLPPSRDEYWDQEVSLTCLVKGFYPSDIAVEWESNGQPENNYKTTPPVLDSDGSFFLYSKLTVDQYRWNPGGYFSCSVMHEALHNHYTQKSLSLSPG
notes: Soluble Fcab
With B4, the binding result in test [7] is reported as “binds”.

B5: Fcab FS20-31 (designed binder)
chain: TCPPCPAPELLGGPSVFLFPPKPKDTLMISRTPEVTCVVVDVSHEDPEVKFNWYVDGVEVHNAKTKPREEQYNSTYRVVSVLTVLHQDWLNGKEYKCKVSNKALPAPIEKTISKAKGQPREPQVYTLPPSRDEYYSGEVSLTCLVKGFYPSDIAVEWESNGQPENDYKTTPPVLDSDGSFFLYSKLTVPYWRWGGPGTFSCSVMHEALHNHYTQKSLSLSPG
notes: Soluble Fcab
For B5, the binding result in test [7] was “binds”.
